# Measured values: patent US20200297760A1, “COMPOSITIONS AND METHODS FOR REDUCING IMMUNE RESPONSES AGAINST CHIMERIC ANTIGEN RECEPTORS” (Juno Therapeutics, Inc., priority 2015, published 2020)
# Biological target: HLA-B*08:01 (recombinant MHC class I molecule) (human)
# Assay: REVEAL MHC-peptide binding assay, stabilisation of ternary complex with recombinant MHC
# Conditions: remark: other sources report otherwise
row,Binder,In Vitro Score (% of positive control peptide)
1,VAFIIFWVR [… synthetic peptide K28R (SEQ ID NO: 100)],0.1

# Biological target: HLA-A*11:01 (recombinant MHC class I molecule) (human)
# Assay: as above
# Conditions: remark: other sources report otherwise
row,Binder,In Vitro Score (% of positive control peptide)
1,VAFIIFWVR [… synthetic peptide K28R (SEQ ID NO: 100)],34.6

# Biological target: HLA-A*03:01 (human)
# Assay: REVEAL MHC-peptide binding assay, recombinant HLA
# Conditions: remark: other sources report otherwise
row,Binder,In Vitro Score (% of positive control peptide)
1,IFWVARGRK,53.7
2,IIFWVKRGR,24.3
3,IIFWVQRGR,18
4,IFWVQRGRK,36.7
5,IIFWVKRGS,16.2
6,IFWVKRGSK,10.4
7,WVKRGSKKL,1.9
8,IIFWVKRGL,15.9
9,IFWVKRGLK,26.9

# Biological target: HLA-A*02:01 (human)
# Assay: REVEAL MHC-peptide binding assay, recombinant HLA
# Conditions: remark: other sources report otherwise
row,Binder,In Vitro Score (% of positive control peptide)
1,IFWVARGRK,1
2,IIFWVKRGR,1.7
3,IIFWVQRGR,5.8
4,IFWVQRGRK,6.1
5,IIFWVKRGS,13.6
6,IFWVKRGSK,2.4
7,WVKRGSKKL,3
8,IIFWVKRGL,82.2
9,IFWVKRGLK,2.4

# Biological target: HLA-A*03:01 (recombinant MHC class I molecule) (human)
# Assay: REVEAL MHC-peptide binding assay, recombinant MHC, score normalised to positive control = 100
# Conditions: remark: other sources report otherwise
row,Binder,In Vitro Score (% of positive control peptide)
1,VAFIIFWVR [Synthetic peptide … (K28R)],0.7

# Biological target: HLA-A*02:01 (recombinant MHC class I molecule) (human)
# Assay: as above
# Conditions: remark: other sources report otherwise
row,Binder,In Vitro Score (% of positive control peptide)
1,VAFIIFWVR [Synthetic peptide … (K28R)],1.2
